The values below come from paper doi:10.1101/2024.10.14.618187, “Molecular basis of interchain disulfide-bond formation in BMP-9 and BMP-10” (bioRxiv, 2024).

B1: Pro-(X)-BMP-10, O95393 S385G (protein)
chain: SPIMNLEQSPLEEDMSLFGDVFSEQDGVDFNTLLQSMKDEFLKTLNLSDIPTQDSAKVDPPEYMLELYNKFATDRTSMPSANIIRSFKNEDLFSQPVSFNGLRKYPLLFNVSIPHHEEVIMAELRLYTLVQRDRMIYDGVDRKITIFEVLESKGDNEGERNMLVLVSGEIYGTNSEWETFDVTDAIRRWQKSGSSTHQLEVHIESKHDEAEDASSGRLEIDTSAQNKHNPLLIVFSDDQSSDKERKEELNEMISHEQLPELDNLGLDSFSSGPGEEALLQMRSNIIYDSTGIEGRNAKGNYCKRTPLYIDFKEIGWDSWIIAPPGYEAYECRGVCNYPLAEHLTPTKHAIIQALVHLKNSQKAGKACCVPTKLEPISILYLDKGVVTYKFKYEGMAVSECGCR
B2: Pro-(X)-BMP-10, O95393 S385G; R353K (protein)
chain: SPIMNLEQSPLEEDMSLFGDVFSEQDGVDFNTLLQSMKDEFLKTLNLSDIPTQDSAKVDPPEYMLELYNKFATDRTSMPSANIIRSFKNEDLFSQPVSFNGLRKYPLLFNVSIPHHEEVIMAELRLYTLVQRDRMIYDGVDRKITIFEVLESKGDNEGERNMLVLVSGEIYGTNSEWETFDVTDAIRRWQKSGSSTHQLEVHIESKHDEAEDASSGRLEIDTSAQNKHNPLLIVFSDDQSSDKERKEELNEMISHEQLPELDNLGLDSFSSGPGEEALLQMRSNIIYDSTGIEGRNAKGNYCKRTPLYIDFKEIGWDSWIIAPPGYEAYECKGVCNYPLAEHLTPTKHAIIQALVHLKNSQKAGKACCVPTKLEPISILYLDKGVVTYKFKYEGMAVSECGCR
B3: BMP-9 G389S dimer (ligand, human, UniProt Q9UK05 320-429, looked up)
chain: SSGAGSHCQKTSLRVNFEDIGWDSWIIAPKEYEAYECKGGCFFPLADDVTPTKHAIVQTLVHLKFPTKVSKACCVPTKLSPISVLYKDDMGVPTLKYHYEGMSVAECGCR
modifications: interchain disulfide at Cys-392
notes: human BMP-9 growth factor domain from a mutant of Pro-(X)-BMP-9 (proBMP9 residues 23-429, A321S, RRKR replaced by IEGR); numbers count on the precursor; Rows of m3 with m3 mean the two chains of the dimer; source: expi293 (suspension HEK293), mutant of Pro-(X)-BMP-9; purified dimer
B4: BMP-9 G389S, K357R dimer (ligand, human, UniProt Q9UK05 320-429, looked up)
chain: SSGAGSHCQKTSLRVNFEDIGWDSWIIAPKEYEAYECRGGCFFPLADDVTPTKHAIVQTLVHLKFPTKVSKACCVPTKLSPISVLYKDDMGVPTLKYHYEGMSVAECGCR
modifications: interchain disulfide at Cys-392
notes: human BMP-9 growth factor domain from a mutant of Pro-(X)-BMP-9 (proBMP9 residues 23-429, A321S, RRKR replaced by IEGR); numbers count on the precursor; Rows of m4 with m4 mean the two chains of the dimer; also called BMP-9 double-mutant; source: expi293 (suspension HEK293), mutant of Pro-(X)-BMP-9; purified dimer
B5: Pro-(fr)-BMP-10 (natural protein, human, UniProt O95393 22-424, looked up)
chain: SPIMNLEQSPLEEDMSLFGDVFSEQDGVDFNTLLQSMKDEFLKTLNLSDIPTQDSAKVDPPEYMLELYNKFATDRTSMPSANIIRSFKNEDLFSQPVSFNGLRKYPLLFNVSIPHHEEVIMAELRLYTLVQRDRMIYDGVDRKITIFEVLESKGDNEGERNMLVLVSGEIYGTNSEWETFDVTDAIRRWQKSGSSTHQLEVHIESKHDEAEDASSGRLEIDTSAQNKHNPLLIVFSDDQSSDKERKEELNEMISHEQLPELDNLGLDSFSSGPGEEALLQMRSNIIYDSTARIRRNAKGNYCKRTPLYIDFKEIGWDSWIIAPPGYEAYECRGVCNYPLAEHLTPTKHAIIQALVHLKNSQKASKACCVPTKLEPISILYLDKGVVTYKFKYEGMAVSECGCR
notes: human proBMP10 residues 22-424 with the natural furin site; secreted partially processed; Partly cut by furin into prodomain and growth factor; also called Pro-BMP-10 with unmodified furin processing site; wild-type BMP-10; source: expi293 (suspension HEK293), secreted; purified by IMAC; not shown: 8xHis, N-terminal, kept
B6: Pro-(fr)-TGF-β2 (natural protein, human, UniProt P61812-1 19-414, looked up)
chain: LSLSTSSTLDMDQFMRKRIEAIRGQILSKLKLTSPPEDYPEPEEVPPEVISIYNSTRDLLQEKASRRAAACERERSDEEYYAKEVYKIDMPPFFPSENAIPPTFYRPYFRIVRFDVSAMEKNASNLVKAEFRVFRLQNPKARVAEQRIELYQILKSKDLTSPTQRYIDSKVVKTRAEGEWLSFDVTDAVHEWLHHKDRNLGFKISLHCPCCTFVPSNNYIIPNKSEELEARFAGIDGTSTYTSGDQKTIKSTRKKNSGKTPHLLLMLLPSYRLESQQTNRRKKRALDAAYCFRNVQDNCCLRPLYIDFKRDLGWKWIHEPKGYNANFCAGACPYLWSSDTQHSRVLSLYNTINPEASASPCCVSQDLEPLTILYYIGKTPKIEQLSNMIVKSCKCS
notes: human proTGFβ2 residues 19-414; Behind the mouse Ig signal peptide and the His tag, no processing site after the tag; Furin processing incomplete; also called Pro-TGF-β2; source: expi293 (suspension HEK293), secreted; purified from conditioned medium by the histidine tag; not shown: 8xHis, N-terminal, kept

For the first data set, the target named is T1, Pro-(X)-BMP-10 S385G, O95393.
T1 chain: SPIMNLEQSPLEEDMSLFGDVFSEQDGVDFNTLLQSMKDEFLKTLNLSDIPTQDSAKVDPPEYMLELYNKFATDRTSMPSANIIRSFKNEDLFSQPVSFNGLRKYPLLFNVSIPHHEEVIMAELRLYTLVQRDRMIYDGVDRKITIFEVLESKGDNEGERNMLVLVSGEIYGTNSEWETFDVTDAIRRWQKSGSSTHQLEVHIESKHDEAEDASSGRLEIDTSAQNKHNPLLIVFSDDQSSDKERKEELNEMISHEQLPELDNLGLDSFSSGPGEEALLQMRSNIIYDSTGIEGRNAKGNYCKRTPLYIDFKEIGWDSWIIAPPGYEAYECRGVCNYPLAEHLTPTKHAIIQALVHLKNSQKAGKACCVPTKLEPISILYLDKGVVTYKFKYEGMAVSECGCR
As to the kind of experiment: SDS-PAGE densitometry after IMAC purification. As to conditions: chain shown with the change.
With B1, the other: dimer over monomer ratio was 0.42.

For a further data set, the target named is T2, Pro-(X)-BMP-10 S385G, R353K, O95393.
T2 chain: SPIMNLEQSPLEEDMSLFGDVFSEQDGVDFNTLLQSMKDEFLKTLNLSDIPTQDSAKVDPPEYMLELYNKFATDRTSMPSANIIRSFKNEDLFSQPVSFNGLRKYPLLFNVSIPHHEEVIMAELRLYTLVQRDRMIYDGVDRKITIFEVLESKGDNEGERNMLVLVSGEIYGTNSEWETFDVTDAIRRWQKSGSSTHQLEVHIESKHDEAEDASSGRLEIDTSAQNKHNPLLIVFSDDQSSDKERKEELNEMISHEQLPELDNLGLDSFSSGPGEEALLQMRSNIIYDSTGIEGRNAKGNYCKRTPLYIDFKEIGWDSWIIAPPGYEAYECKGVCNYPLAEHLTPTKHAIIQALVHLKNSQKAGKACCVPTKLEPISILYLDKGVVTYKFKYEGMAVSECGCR
Kind of data set: SDS-PAGE densitometry after IMAC purification. As to conditions: chain shown with the change.
Regarding B2, the other: dimer over monomer ratio amounted to 0.41.

A further data set concerns the molecule itself. As to the kind of experiment: crystal structure; purified BMP-9 dimers at acidic pH: wild type 0.3 M sodium citrate pH 3.5; mutants 0.1 M acetic acid pH 4.
Conditions: not given
In the case of B3, the binding result was “binds”. For the molecule B4, the binding result is “binds”.

Another data set concerns the molecule itself. Kind of data set: non-reducing SDS-PAGE after IMAC, with densitometry; His-tagged pro-proteins purified from expi293 conditioned medium by IMAC, run non-reduced and reduced; shows the disulfide-linked dimer beside the monomer; bands quantified with ImageJ.
Conditions: not given
Regarding B5, the binding result was “binds”.

With B6, the binding result is “binds”.
